Source: US20020160011A1, “ADJUVANT COMPOSITIONS FOR VACCINES” (priority 1997, published 2002)

B1: IL12: murine IL12 purified from the supernatant of transfected P1HTR cells; heterodimeric cytokine (protein, UniProt P43431 23-215; P43432 23-335, looked up)
Interleukin-12 subunit alpha: RVIPVSGPARCLSQSRNLLKTTDDMVKTAREKLKHYSCTAEDIDHEDITRDQTSTLKTCLPLELHKNESCLATRETSSTTRGSCLPPQKTSLMMTLCLGSIYEDLKMYQTEFQAINAALQNHNHQQIILDKGMLVAIDELMQSLNHNGETLRQKPPVGEADPYRVKMKLCILLHAFSTRVVTINRVMGYLSSA
Interleukin-12 subunit beta: MWELEKDVYVVEVDWTPDAPGETVNLTCDTPEEDDITWTSDQRHGVIGSGKTLTITVKEFLDAGQYTCHKGGETLSHSHLLLHKKENGIWSTEILKNFKNKTFLKCEAPNYSGRFTCSWLVQRNMDLKFNIKSSSSSPDSRAVTCGMASLSAEKVTLDQRDYEKYSVSCQEDVTCPTAEETLPIELALEARQQNKYENYSTSFFIRDIIKPDPPKNLQMKPLKNSQVEVSWEYPDSWSTPHSYFSLKFFVRIQRKKEKMKETEEGCNQKGAFLVEKTSTEVQCKGGNVCVQAQDRYYNSSCSKWACVPCRVRS
B2: IL-7: other cytokine tested with the QS21/MPL adjuvant (protein, UniProt P13232 26-177, looked up)
Interleukin-7: DCDIEGKDGKQYESVLMVSIDQLLDSMKEIGSNCLNNEFNFFKRHICDANKEGMFLFRAARKLRQFLKMNSTGDFDLHLLKVSEGTTILLNCTGQVKGRKPAALGEAQPTKSLEENKSLKEQKKLNDLCFLKRLLQEIKTCWNKILMGTKEH

Legend:
[1] = Ability of other cytokines to enhance the effect of the QS21/MPL adjuvant; conditions: cytokine added in place of IL-12
[2] = Systemic toxicity of locally injected IL12 in immunised mice; type: in vivo

Molecule | enhancement of the effect of the QS21/MPL adjuvant [1] | systemic toxicity ([2]; decreased IL12 dose ('at that dose', b48: 10ng or 30 ng as printed)) | systemic toxic effects ([2]; high dose of IL12 (100ng (1000U)/mouse/day), P1A experiment) | systemic toxicity ([2]; high dose of IL12 (1μg/mouse/day), injected locally, P198 experiments)
GM-CSF: other cytokine tested with the QS21/MPL adjuvant | unable to enhance | – | – | –
IL-6: other cytokine tested with the QS21/MPL adjuvant | unable to enhance | – | – | –
IFN-γ: other cytokine tested with the QS21/MPL adjuvant | unable to enhance | – | – | –
B1 | – | largely reduced but not totally absent | we observed systemic toxic effects | systemic toxicity with symptoms similar to those observed in a LPS shock
B2 | unable to enhance | – | – | –
